Measurements published in US20120316071A1 (published 2012).

T1: rHuman Erythropoietin R/Fc Chimera, CF (R&D Systems Cat#963-ER) (human, UniProt P19235 25-250)
T1 construct: Bought from R&D Systems; also called EPO R; EPO R/Fc; Fc part of the bought chimera not given
T1 sequence (looked up): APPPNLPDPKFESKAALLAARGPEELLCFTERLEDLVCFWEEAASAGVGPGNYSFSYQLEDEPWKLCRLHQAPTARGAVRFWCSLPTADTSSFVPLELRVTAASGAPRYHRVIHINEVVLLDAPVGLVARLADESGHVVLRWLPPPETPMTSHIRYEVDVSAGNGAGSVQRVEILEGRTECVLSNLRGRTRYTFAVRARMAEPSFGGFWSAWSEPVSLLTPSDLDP

T2: rHuman Erythropoietin R/Fc Chimera (human, UniProt P19235 25-250)
T2 construct: also called EPO R; EPO R/Fc
T2 sequence (looked up): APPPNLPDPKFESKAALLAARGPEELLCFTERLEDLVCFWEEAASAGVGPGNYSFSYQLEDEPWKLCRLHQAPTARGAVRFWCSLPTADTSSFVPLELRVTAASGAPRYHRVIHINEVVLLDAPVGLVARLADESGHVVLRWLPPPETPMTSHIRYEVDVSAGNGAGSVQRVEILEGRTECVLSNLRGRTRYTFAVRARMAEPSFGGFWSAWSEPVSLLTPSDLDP


What was measured:
[1] = target: T3, rHuman P-Cadherin/Fc Chimera, CF (R&D Systems Cat#861-PC) (human, UniProt P22223 108-654); experiment: ECL multispot (MSD) binding assay; antigen spotted on plate, Fab in solution, Ru-labelled anti-kappa detection;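 also: purified Fab in 1% BSA TBST incubated 1 h at 20 °C with shaking, signal compared with each well's blank, signal/blank ratio of 4 or above counted as binder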
T3 construct: Bought from R&D Systems; Fc part of the bought chimera not given

[2] = target: T4, rHuman ErbB2/Fc Chimera, CF (R&D Systems Cat#1129-ER) (human, UniProt P04626 23-652); experiment: as above
T4 construct: Bought from R&D Systems; also called human epidermal growth factor 2 receptor; Fc part of the bought chimera not given

[3] = target: T5, rHuman HGF R/c-MET/Fc Chimera, CF (R&D Systems Cat#358-MT/CF) (human, UniProt P08581 25-932); experiment: as above
T5 construct: Bought from R&D Systems; also called HGF R/Fc; hepatocyte growth factor receptor; Fc part of the bought chimera not given
T5 sequence (P08581 25-932, change not shown): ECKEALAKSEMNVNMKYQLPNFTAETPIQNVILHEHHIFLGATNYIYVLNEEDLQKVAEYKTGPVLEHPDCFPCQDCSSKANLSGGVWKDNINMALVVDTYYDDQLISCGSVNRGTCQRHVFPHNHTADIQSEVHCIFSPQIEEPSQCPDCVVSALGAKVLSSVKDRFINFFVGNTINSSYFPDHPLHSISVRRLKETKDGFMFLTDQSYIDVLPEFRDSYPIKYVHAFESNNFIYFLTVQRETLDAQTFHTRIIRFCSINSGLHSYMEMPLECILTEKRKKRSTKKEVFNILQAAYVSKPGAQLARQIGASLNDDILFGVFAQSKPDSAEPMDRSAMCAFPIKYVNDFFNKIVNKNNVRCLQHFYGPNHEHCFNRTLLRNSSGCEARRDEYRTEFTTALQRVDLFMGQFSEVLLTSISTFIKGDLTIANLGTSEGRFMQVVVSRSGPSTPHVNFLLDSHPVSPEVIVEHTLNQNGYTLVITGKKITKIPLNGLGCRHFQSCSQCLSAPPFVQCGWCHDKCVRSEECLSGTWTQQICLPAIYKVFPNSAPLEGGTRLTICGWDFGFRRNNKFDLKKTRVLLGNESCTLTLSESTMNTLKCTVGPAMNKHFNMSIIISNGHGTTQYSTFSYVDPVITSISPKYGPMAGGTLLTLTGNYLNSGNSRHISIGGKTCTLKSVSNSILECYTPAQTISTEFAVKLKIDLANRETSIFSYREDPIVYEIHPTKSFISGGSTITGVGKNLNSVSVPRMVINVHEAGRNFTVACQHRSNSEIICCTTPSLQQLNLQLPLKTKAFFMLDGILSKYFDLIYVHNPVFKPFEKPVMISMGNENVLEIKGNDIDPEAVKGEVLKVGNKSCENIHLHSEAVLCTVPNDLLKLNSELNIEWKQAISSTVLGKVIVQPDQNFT

[4] = target: T6, rHuman Notch-1/Fc Chimera, CF (R&D Systems Cat#3647-TK) (human, UniProt P46531 19-526); experiment: as above
T6 construct: Bought from R&D Systems; Fc part of the bought chimera not given

[5] = target: T7, rHuman CD44/Fc Chimera, CF (R&D Systems Cat#3660-CD) (human, UniProt P16070 21-220); experiment: as above
T7 construct: Bought from R&D Systems; Fc part of the bought chimera not given

[6] = target: T8, rHuman IGF-1 sR, CF (R&D Systems Cat#391-GR) (human, UniProt P08069 31-932); experiment: as above
T8 construct: Bought from R&D Systems as a soluble receptor; also called insulin-like growth factor-1 soluble receptor

[7] = target: T9, Recombinant Human DLL4 (R&D Systems Cat#1506-D4/CF) (human, UniProt Q9NR61 27-524); experiment: as above
T9 construct: Bought from R&D Systems; also called delta-like protein 4; rHuman DLL4

[8] = target: T10, rHuman EGF R/Fc Chimera, CF (R&D Systems Cat#344-ER) (human, UniProt P00533 25-645); experiment: as above
T10 construct: Bought from R&D Systems; also called epidermal growth factor receptor; Fc part of the bought chimera not given

[9] = target: T1, rHuman Erythropoietin R/Fc Chimera, CF …; experiment: as above
[10] = target: T11, Recombinant Human DLL4 (delta-like protein 4) (human, UniProt Q9NR61 27-524); experiment: ELISA, DLL4 coated on plate, Fab in solution, absorbance at 450 nm
T11 construct: Bought recombinant protein (R&D Systems Cat#1506-D4/CF); also called rHuman DLL4; Delta-like 4

[11] = target: T11, Recombinant Human DLL4 (delta-like …); experiment: ECL (MSD) multispot binding assay, DLL4 immobilized, Fab in solution
[12] = target: T12, rHuman HGF R/c-MET/Fc Chimera (human, UniProt P08581 25-932); experiment: ECL multispot (MSD) binding assay; antigen spotted on plate, Fab in solution;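 also: purified Fab bound for 1 h at 20 °C, detected with a TAG-labelled antibody, electrochemiluminescence compared with each well's blank, signal-to-blank ratio of at least 4 scored as hit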
T12 construct: also called HGF R/Fc
T12 sequence (P08581 25-932, change not shown): as above

rHuman ErbB2/Fc Chimera = rHuman ErbB2/Fc Chimera (human, UniProt P04626 23-652); experiment: as above
rHuman CD44/Fc Chimera = rHuman CD44/Fc Chimera (human, UniProt P16070 21-220); experiment: as above
[13] = target: T13, rHuman Notch-1/Fc Chimera (human, UniProt P46531 19-526); experiment: as above
T13 construct: Bought from R&D Systems (Cat#3647-TK)

[14] = target: T2, rHuman Erythropoietin R/Fc Chimera; experiment: as above
[15] = target: rHuman IGF-1 sR (insulin-like growth factor-1 soluble receptor) (human, UniProt P08069 31-932); experiment: as above
rHuman EGF R/Fc Chimera = rHuman EGF R/Fc Chimera (human, UniProt P00533 25-645); experiment: as above
[16] = target: T14, rHuman P-Cadherin/Fc Chimera (human, UniProt P22223 108-654); experiment: as above
T14 construct: Bought from R&D Systems (Cat#861-PC)

ECL signal [1] | ECL signal [2] | ECL signal [3] | ECL signal [4] | ECL signal [5] | ECL signal [6] | ECL signal [7] | ECL signal [8] | ECL signal [9] | ELISA (Signal-Noise) [10] | ECL Signal/Noise [11] | ECL signal [12] | ECL signal (rHuman ErbB2/Fc Chimera) | ECL signal (rHuman CD44/Fc Chimera) | ECL signal [13] | ECL signal [14] | ECL signal [15] | ECL signal (rHuman EGF R/Fc Chimera) | ECL signal [16] | Binder
262 | 253 | 358 | 427 | 235 | 268 | 176000 | 377 | 507 |  |  |  |  |  |  |  |  |  |  | Fab VH1-46_IGHD6-6*01_IGHJ1*01 S102A/S103P/S104F/H111F S31A & L6_IGKJ1*01 (Fab, V domains shown, Tested as a Fab made in E. coli; The heavy chain vector (Plasmid A) adds CH1 with His6 and Flag tags; The light chain vector (Plasmid C) adds kappa CL; also called APFF S31A) VH: QVQLVQSGAEVKKPGASVKVSCKASGYTFTAYYMHWVRQAPGQGLEWMGIINPSGGSTSYAQKFQGRVTMTRDTSTSTVYMELSSLRSEDTAVYYCAREEYAPFSAEYFQFWGQGTLVTVSS VL: not shown
 |  |  |  |  |  |  |  |  | 0.36 | 218 |  |  |  |  |  |  |  |  | Fab VH1-46_IGHD6-6*01_IGHJ1*01 S102A/S103P/S104F/H111F (H:APFF) & L6_IGKJ1*01 S76E (Fab, V domains shown, Tested as Fab expressed in E. coli; VH was cloned into Plasmid A (CH1 constant region, His6 and Flag tags) and the kappa VL into Plasmid C (kappa CL)) VH: QVQLVQSGAEVKKPGASVKVSCKASGYTFTSYYMHWVRQAPGQGLEWMGIINPSGGSTSYAQKFQGRVTMTRDTSTSTVYMELSSLRSEDTAVYYCAREEYAPFSAEYFQFWGQGTLVTVSS VL: EIVLTQSPATLSLSPGERATLSCRASQSVSSYLAWYQQKPGQAPRLLIYDASNRATGIPARFSGSGSGTDFTLTIESLEPEDFAVYYCQQRSNWPPWTFGQGTKVEIKR
 |  |  |  |  |  |  |  |  |  |  | 288 | 246 | 331 | 347 | 368 | 237 | 305 | 390 | Fab VH1-46_IGHD6-6*01_IGHJ1*01 S102A/S103P/S104F/H111F (APFF) & L6_IGKJ1*01 S92V (Fab, V domains shown, Tested as Fab (CH1 with His6/Flag tags from Plasmid A; kappa CL from Plasmid C); also called APFF / S92V) VH: QVQLVQSGAEVKKPGASVKVSCKASGYTFTSYYMHWVRQAPGQGLEWMGIINPSGGSTSYAQKFQGRVTMTRDTSTSTVYMELSSLRSEDTAVYYCAREEYAPFSAEYFQFWGQGTLVTVSS VL: EIVLTQSPATLSLSPGERATLSCRASQSVSSYLAWYQQKPGQAPRLLIYDASNRATGIPARFSGSGSGTDFTLTISSLEPEDFAVYYCQQRVNWPPWTFGQGTKVEIKR
 |  |  |  |  |  |  |  |  |  |  | 346 | 301 | 304 | 385 | 340 | 271 | 367 | 328 | Fab VH1-46_IGHD6-6*01_IGHJ1*01 S102A/S103P/S104F/H111F (APFF) & L6_IGKJ1*01 S92M (Fab, V domains shown, Tested as Fab (CH1 with His6/Flag tags from Plasmid A; kappa CL from Plasmid C); also called APFF / S92M) VH: QVQLVQSGAEVKKPGASVKVSCKASGYTFTSYYMHWVRQAPGQGLEWMGIINPSGGSTSYAQKFQGRVTMTRDTSTSTVYMELSSLRSEDTAVYYCAREEYAPFSAEYFQFWGQGTLVTVSS VL: EIVLTQSPATLSLSPGERATLSCRASQSVSSYLAWYQQKPGQAPRLLIYDASNRATGIPARFSGSGSGTDFTLTISSLEPEDFAVYYCQQRMNWPPWTFGQGTKVEIKR
 |  |  |  |  |  |  |  |  |  |  | 243 | 242 | 336 | 407 | 314 | 312 | 293 | 271 | Fab VH1-46_IGHD6-6*01_IGHJ1*01 S102A/S103P/S104F/H111F (APFF) & L6_IGKJ1*01 S92N (Fab, V domains shown, Tested as Fab (CH1 with His6/Flag tags from Plasmid A; kappa CL from Plasmid C); also called APFF / S92N) VH: QVQLVQSGAEVKKPGASVKVSCKASGYTFTSYYMHWVRQAPGQGLEWMGIINPSGGSTSYAQKFQGRVTMTRDTSTSTVYMELSSLRSEDTAVYYCAREEYAPFSAEYFQFWGQGTLVTVSS VL: EIVLTQSPATLSLSPGERATLSCRASQSVSSYLAWYQQKPGQAPRLLIYDASNRATGIPARFSGSGSGTDFTLTISSLEPEDFAVYYCQQRNNWPPWTFGQGTKVEIKR
